The source of these data is article doi:10.1101/2020.11.04.368696v1.

The subject of this data set is CC/C=C\CCO. The data set can be described thus: purified protein. To be noted: 2 mM acetyl-CoA, 50 °C.

Broadly, the Km is the substrate concentration at which the rate is half of its maximum. One may read the kcat as the number of substrate molecules converted per active site and unit of time at saturation.

On to “CATec3 (CAT3_ECOLIX) (Escherichia coli; Y20F)”, for which the Km was 6.4 ± 2.2 mM and the catalytic constant (kcat) amounted to 2.3 ± 0.2 s⁻¹.
